Molecular target: FGFR3 (UniProt P22607)
Test: phosphorylation enrichment, bacterial display (enrichment ratio); higher = better substrate or ligand; peptides without Tyr show the background
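Note: 11-residue human phosphosite peptides and single-mutation variants displayed on the E. coli surface, counted by deep sequencing, each peptide's frequency after selection divided by its frequency in the unselected input library; frequency after pTyr selection over input frequency; kinase dosed for 20-30% of maximal phosphorylation in three min.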

FGFR3, sequence (P22607 whole entry, looked up): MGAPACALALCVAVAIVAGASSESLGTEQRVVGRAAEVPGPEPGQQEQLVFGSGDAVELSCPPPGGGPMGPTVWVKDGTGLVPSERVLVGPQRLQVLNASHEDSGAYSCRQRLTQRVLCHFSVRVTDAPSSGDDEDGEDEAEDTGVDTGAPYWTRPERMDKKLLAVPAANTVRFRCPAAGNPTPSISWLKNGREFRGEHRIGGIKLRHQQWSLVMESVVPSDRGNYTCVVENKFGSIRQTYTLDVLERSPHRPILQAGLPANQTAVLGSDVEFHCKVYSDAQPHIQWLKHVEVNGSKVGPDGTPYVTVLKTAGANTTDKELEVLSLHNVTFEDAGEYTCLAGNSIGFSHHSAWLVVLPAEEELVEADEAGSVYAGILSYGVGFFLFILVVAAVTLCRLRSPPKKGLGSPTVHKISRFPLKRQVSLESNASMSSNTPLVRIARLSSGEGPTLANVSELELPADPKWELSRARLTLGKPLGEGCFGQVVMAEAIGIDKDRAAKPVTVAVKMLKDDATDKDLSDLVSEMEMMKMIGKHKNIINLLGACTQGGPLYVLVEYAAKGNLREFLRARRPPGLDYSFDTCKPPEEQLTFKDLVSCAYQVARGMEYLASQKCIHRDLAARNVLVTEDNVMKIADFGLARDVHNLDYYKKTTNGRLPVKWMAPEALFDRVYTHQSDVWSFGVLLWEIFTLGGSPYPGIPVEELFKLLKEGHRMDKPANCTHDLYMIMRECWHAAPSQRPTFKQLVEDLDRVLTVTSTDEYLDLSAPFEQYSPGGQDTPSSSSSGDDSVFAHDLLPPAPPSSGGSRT

Sequence | phosphorylation enrichment
ITNLLYHVVGW [GBA_Y412] | 5.65
APTSGYQEFIH [IL4R_Y575_V579I] | 0.679
SSAETYSRMCL [NBEAL2_Y1835_R1839C] | 0.669
RLLVDYPWTQR [HBB_Y36_V35D] | 0.75
VNLVLYLSIAK [FBXO15_Y496] | 0.867
DNEAIYDICRR [TUBA4A_Y210] | 0.843
DPADRYLTEQC [CDKL5_Y286] | 0.731
FSQQTYFPVSN [ABCD1_Y180_R182P_YF] | 3.8
EQMASYSGHSV [ITGA2B_Y319_F320S] | 0.406
NVKGIYAVADV [GSR_Y371_G374A] | 0.687
LLRLAYLADVF [ZBED5_Y476_I480V] | 0.725
MDNQEYKDAFK [BRDT_Y331_YF] | 0.67
SDIEEYVHRIG [DDX3X_Y525] | 0.567
EQQDMYRLKVL [ABCC6_Y372_N370D] | 0.581
FARNCYVAGQY [G6PD_Y107_S106C] | 0.641
DIRAQYDELAQ [KRT18_Y256_R261Q] | 0.753
IEKLTYIDEWF [CPS1_Y872_K875E] | 0.737

Sequence | phosphorylation enrichment
EFGRRYGFSRQ [CCDC93_Y209_YF] | 0.432
EESSHCSTEKE [ADAR_Y587_Y587C] | 0.663
DLREKYMDCGG [HAP1_Y440] | 0.726
LAIEGYVVVCK [RHO_Y136_R135G] | 1.02
LFSNAYLSDLA [ALDH1A1_Y119_N121S_YF] | 1.42
IRTDAYVRAMT [RPE65_Y89] | 0.482
KLKNAYEECLE [MYH7_Y1488_S1491C] | 0.739
VYYGSYSRPYG [NKAP_Y104] | 2.01
AASTDYNKRGD [PDHA1_Y242_Y243N] | 0.451
RHEASYSSDSE [REPS1_Y116_A113E] | 0.841
KVPAIYGVDTR [CPS1_Y162] | 0.469
RLLRGYDQFAF [HLA-B_Y137_H137Y_YF] | 0.627
KPSLKYVTFGN [GALNTL5_Y404_G401S_YF] | 0.569
MGRVKYGAYIN [GLB1_Y485_N484K] | 0.47
GKTFTYHSVFF [ZNF80_Y200_R201H] | 0.904
PIQLFYTRKNT [GHR_Y86_R89K] | 0.967

System: Fer (mouse)
Test: as above

Sequence | phosphorylation enrichment
ITNLLYHVVGW [GBA_Y412] | 2.79
APTSGYQEFIH [IL4R_Y575_V579I] | 0.416
SSAETYSRMCL [NBEAL2_Y1835_R1839C] | 1.01
RLLVDYPWTQR [HBB_Y36_V35D] | 0.45
VNLVLYLSIAK [FBXO15_Y496] | 0.443
DNEAIYDICRR [TUBA4A_Y210] | 10.7
DPADRYLTEQC [CDKL5_Y286] | 0.53
FSQQTYFPVSN [ABCD1_Y180_R182P_YF] | 0.494
EQMASYSGHSV [ITGA2B_Y319_F320S] | 0.734
NVKGIYAVADV [GSR_Y371_G374A] | 2.06
LLRLAYLADVF [ZBED5_Y476_I480V] | 0.633
MDNQEYKDAFK [BRDT_Y331_YF] | 0.505
SDIEEYVHRIG [DDX3X_Y525] | 0.367
EQQDMYRLKVL [ABCC6_Y372_N370D] | 0.473
FARNCYVAGQY [G6PD_Y107_S106C] | 0.511
DIRAQYDELAQ [KRT18_Y256_R261Q] | 0.45
IEKLTYIDEWF [CPS1_Y872_K875E] | 0.548

Sequence | phosphorylation enrichment
EFGRRYGFSRQ [CCDC93_Y209_YF] | 0.338
EESSHCSTEKE [ADAR_Y587_Y587C] | 0.424
DLREKYMDCGG [HAP1_Y440] | 0.586
LAIEGYVVVCK [RHO_Y136_R135G] | 0.459
LFSNAYLSDLA [ALDH1A1_Y119_N121S_YF] | 1.31
IRTDAYVRAMT [RPE65_Y89] | 0.398
KLKNAYEECLE [MYH7_Y1488_S1491C] | 0.615
VYYGSYSRPYG [NKAP_Y104] | 0.835
AASTDYNKRGD [PDHA1_Y242_Y243N] | 0.386
RHEASYSSDSE [REPS1_Y116_A113E] | 0.777
KVPAIYGVDTR [CPS1_Y162] | 0.422
RLLRGYDQFAF [HLA-B_Y137_H137Y_YF] | 0.696
KPSLKYVTFGN [GALNTL5_Y404_G401S_YF] | 0.461
MGRVKYGAYIN [GLB1_Y485_N484K] | 0.416
GKTFTYHSVFF [ZNF80_Y200_R201H] | 0.655
PIQLFYTRKNT [GHR_Y86_R89K] | 1.27

Molecular target: Fes (UniProt P07332)
Test: as above

Fes, sequence (P07332 whole entry, looked up): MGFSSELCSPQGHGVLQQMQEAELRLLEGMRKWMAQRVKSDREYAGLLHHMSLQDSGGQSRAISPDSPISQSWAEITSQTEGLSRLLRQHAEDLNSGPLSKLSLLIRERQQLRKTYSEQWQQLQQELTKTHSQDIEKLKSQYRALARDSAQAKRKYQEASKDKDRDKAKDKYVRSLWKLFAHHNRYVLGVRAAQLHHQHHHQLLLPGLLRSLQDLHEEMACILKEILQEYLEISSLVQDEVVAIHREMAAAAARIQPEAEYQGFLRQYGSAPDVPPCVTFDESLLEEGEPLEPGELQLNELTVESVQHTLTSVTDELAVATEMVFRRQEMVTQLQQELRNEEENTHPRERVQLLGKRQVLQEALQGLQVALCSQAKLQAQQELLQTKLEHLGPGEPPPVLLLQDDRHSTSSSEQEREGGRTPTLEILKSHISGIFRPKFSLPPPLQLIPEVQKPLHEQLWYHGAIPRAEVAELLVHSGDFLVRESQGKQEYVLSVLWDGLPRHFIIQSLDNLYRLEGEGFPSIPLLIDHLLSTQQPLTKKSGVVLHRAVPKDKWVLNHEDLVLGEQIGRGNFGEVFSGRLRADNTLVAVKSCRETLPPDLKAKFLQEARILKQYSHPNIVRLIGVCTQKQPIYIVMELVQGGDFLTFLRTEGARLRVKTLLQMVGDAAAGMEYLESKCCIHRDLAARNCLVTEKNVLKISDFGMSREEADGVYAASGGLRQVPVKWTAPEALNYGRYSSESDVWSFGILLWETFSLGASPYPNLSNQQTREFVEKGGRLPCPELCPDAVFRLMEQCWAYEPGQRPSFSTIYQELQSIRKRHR

Sequence | phosphorylation enrichment
ITNLLYHVVGW [GBA_Y412] | 1.32
APTSGYQEFIH [IL4R_Y575_V579I] | 0.82
SSAETYSRMCL [NBEAL2_Y1835_R1839C] | 0.851
RLLVDYPWTQR [HBB_Y36_V35D] | 0.759
VNLVLYLSIAK [FBXO15_Y496] | 1.73
DNEAIYDICRR [TUBA4A_Y210] | 1.45
DPADRYLTEQC [CDKL5_Y286] | 1.12
FSQQTYFPVSN [ABCD1_Y180_R182P_YF] | 1.01
EQMASYSGHSV [ITGA2B_Y319_F320S] | 0.543
NVKGIYAVADV [GSR_Y371_G374A] | 0.82
LLRLAYLADVF [ZBED5_Y476_I480V] | 1.19
MDNQEYKDAFK [BRDT_Y331_YF] | 1.39
SDIEEYVHRIG [DDX3X_Y525] | 0.972
EQQDMYRLKVL [ABCC6_Y372_N370D] | 0.773
FARNCYVAGQY [G6PD_Y107_S106C] | 1.07
DIRAQYDELAQ [KRT18_Y256_R261Q] | 1.06
IEKLTYIDEWF [CPS1_Y872_K875E] | 1.35

Sequence | phosphorylation enrichment
EFGRRYGFSRQ [CCDC93_Y209_YF] | 0.634
EESSHCSTEKE [ADAR_Y587_Y587C] | 1.01
DLREKYMDCGG [HAP1_Y440] | 1.1
LAIEGYVVVCK [RHO_Y136_R135G] | 1.41
LFSNAYLSDLA [ALDH1A1_Y119_N121S_YF] | 2.92
IRTDAYVRAMT [RPE65_Y89] | 0.605
KLKNAYEECLE [MYH7_Y1488_S1491C] | 1.16
VYYGSYSRPYG [NKAP_Y104] | 0.756
AASTDYNKRGD [PDHA1_Y242_Y243N] | 0.505
RHEASYSSDSE [REPS1_Y116_A113E] | 1.19
KVPAIYGVDTR [CPS1_Y162] | 0.665
RLLRGYDQFAF [HLA-B_Y137_H137Y_YF] | 1.21
KPSLKYVTFGN [GALNTL5_Y404_G401S_YF] | 0.75
MGRVKYGAYIN [GLB1_Y485_N484K] | 0.569
GKTFTYHSVFF [ZNF80_Y200_R201H] | 1.25
PIQLFYTRKNT [GHR_Y86_R89K] | 1.62

Molecular target: Fyn (UniProt P06241)
Test: as above

Fyn, sequence (P06241 whole entry, looked up): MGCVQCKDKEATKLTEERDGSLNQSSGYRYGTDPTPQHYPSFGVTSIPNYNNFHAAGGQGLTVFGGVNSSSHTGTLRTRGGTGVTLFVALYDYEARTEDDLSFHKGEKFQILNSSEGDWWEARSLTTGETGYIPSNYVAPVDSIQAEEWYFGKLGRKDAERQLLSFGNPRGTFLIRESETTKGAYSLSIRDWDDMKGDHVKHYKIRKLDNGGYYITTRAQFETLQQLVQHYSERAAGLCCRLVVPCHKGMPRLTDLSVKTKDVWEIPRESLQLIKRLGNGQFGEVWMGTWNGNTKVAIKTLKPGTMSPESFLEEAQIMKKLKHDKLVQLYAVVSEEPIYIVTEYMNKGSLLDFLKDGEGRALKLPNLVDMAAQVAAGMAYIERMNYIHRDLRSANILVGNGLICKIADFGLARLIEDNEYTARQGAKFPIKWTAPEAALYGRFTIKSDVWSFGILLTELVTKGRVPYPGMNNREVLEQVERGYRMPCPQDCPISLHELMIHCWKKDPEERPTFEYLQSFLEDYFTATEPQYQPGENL

Sequence | phosphorylation enrichment
ITNLLYHVVGW [GBA_Y412] | 4.07
APTSGYQEFIH [IL4R_Y575_V579I] | 0.504
SSAETYSRMCL [NBEAL2_Y1835_R1839C] | 0.526
RLLVDYPWTQR [HBB_Y36_V35D] | 0.616
VNLVLYLSIAK [FBXO15_Y496] | 0.462
DNEAIYDICRR [TUBA4A_Y210] | 8.6
DPADRYLTEQC [CDKL5_Y286] | 0.478
FSQQTYFPVSN [ABCD1_Y180_R182P_YF] | 0.889
EQMASYSGHSV [ITGA2B_Y319_F320S] | 0.449
NVKGIYAVADV [GSR_Y371_G374A] | 3.67
LLRLAYLADVF [ZBED5_Y476_I480V] | 0.484
MDNQEYKDAFK [BRDT_Y331_YF] | 0.493
SDIEEYVHRIG [DDX3X_Y525] | 0.429
EQQDMYRLKVL [ABCC6_Y372_N370D] | 0.387
FARNCYVAGQY [G6PD_Y107_S106C] | 0.437
DIRAQYDELAQ [KRT18_Y256_R261Q] | 0.576
IEKLTYIDEWF [CPS1_Y872_K875E] | 0.453

Sequence | phosphorylation enrichment
EFGRRYGFSRQ [CCDC93_Y209_YF] | 0.449
EESSHCSTEKE [ADAR_Y587_Y587C] | 0.598
DLREKYMDCGG [HAP1_Y440] | 0.499
LAIEGYVVVCK [RHO_Y136_R135G] | 0.604
LFSNAYLSDLA [ALDH1A1_Y119_N121S_YF] | 1.23
IRTDAYVRAMT [RPE65_Y89] | 0.463
KLKNAYEECLE [MYH7_Y1488_S1491C] | 0.438
VYYGSYSRPYG [NKAP_Y104] | 9.54
AASTDYNKRGD [PDHA1_Y242_Y243N] | 0.37
RHEASYSSDSE [REPS1_Y116_A113E] | 0.845
KVPAIYGVDTR [CPS1_Y162] | 0.642
RLLRGYDQFAF [HLA-B_Y137_H137Y_YF] | 0.591
KPSLKYVTFGN [GALNTL5_Y404_G401S_YF] | 0.515
MGRVKYGAYIN [GLB1_Y485_N484K] | 0.472
GKTFTYHSVFF [ZNF80_Y200_R201H] | 0.596
PIQLFYTRKNT [GHR_Y86_R89K] | 1.04

Reference: the supplement of paper PMC10065799, “High-throughput profiling of sequence recognition by tyrosine kinases and SH2 domains using bacterial peptide display” (eLife, 2023)
